Measured values published in paper PMC3796484.

Molecular target: spliced X-box binding protein (Xbp1s), P17861-2
Experiment: two-hybrid assay (Gal4 UAS-CAT reporter in transfected cells)
Conditions: CAT activity normalized to β-galactosidase internal control; P=.008; parent: est. 3.4; read off a plot

Sequence of spliced X-box binding protein (Xbp1s), P17861-2 (P17861 other isoform, or with tags, fused parts or gaps): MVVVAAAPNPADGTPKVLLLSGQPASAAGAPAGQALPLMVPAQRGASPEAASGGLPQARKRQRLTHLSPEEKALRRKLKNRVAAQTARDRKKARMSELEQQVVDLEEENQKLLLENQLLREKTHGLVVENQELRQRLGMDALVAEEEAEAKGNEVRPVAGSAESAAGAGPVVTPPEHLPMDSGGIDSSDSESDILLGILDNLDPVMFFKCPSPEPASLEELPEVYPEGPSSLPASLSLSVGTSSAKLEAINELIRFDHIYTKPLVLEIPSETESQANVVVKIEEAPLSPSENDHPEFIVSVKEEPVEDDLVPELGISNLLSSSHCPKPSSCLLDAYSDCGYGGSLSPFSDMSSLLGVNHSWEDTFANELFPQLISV

other: Ratio (with:without activator): 1
Substance: Zhangfei linked to the DNA-binding domain of yeast GAL4 (from UniProt Q9NS37) ZF(L/A)
